Kd data for 15 sequences are collected here from the Immune Epitope Database (IEDB).

For one assay, the target named is HLA-B*35:01. Put plainly: IEDB peptide-MHC binding, purified MHC/competitive/radioactivity; filed as Kd, often an IC50 or EC50 that approximates it; ≥ and ≤ were set here for values at or beyond the usual limits of such assays. To be noted: source organism: Dengue virus 3 Martinique/1243/1999.
In assay [1] the target is HLA-A*02:01. The description is as above.
The target of a further assay is HLA-A*02:17. Described as above.
Assay [2] addresses HLA-A*02:03. Described as above.
The target in the next assay is HLA-A*02:06. The description is as above.
For the next assay, the target named is HLA-B*15:01. Put plainly: IEDB peptide-MHC binding, purified MHC/competitive/fluorescence; filed as Kd, often an IC50 or EC50 that approximates it; ≥ and ≤ were set here for values at or beyond the usual limits of such assays.
The next assay concerns the target HLA-A*01:01. The description is as above.
For assay [3], the target named is HLA-A*26:01. The description is as above.
The target in assay [4] is HLA-A*68:02. Put plainly: IEDB peptide-MHC binding, purified MHC/competitive/radioactivity; filed as Kd, often an IC50 or EC50 that approximates it; ≥ and ≤ were set here for values at or beyond the usual limits of such assays.
The target of a further assay is HLA-A*02:19. Put plainly: IEDB peptide-MHC binding, purified MHC/direct/fluorescence; filed as Kd, often an IC50 or EC50 that approximates it; ≥ and ≤ were set here for values at or beyond the usual limits of such assays.
The target in assay [5] is HLA-A*02:03. The description is as above.
Assay [6] addresses HLA-B*46:01. The description is as above. Conditions: source organism: Bacillus anthracis str. A0465.
In assay [7] the target is HLA-B*51:01. The assay is described as above. To be noted: source organism: Bacillus anthracis str. A0465.
The target in assay [8] is HLA-B*18:01. The description is as above. To be noted: source organism: Bacillus anthracis str. A0465.
The target in assay [9] is HLA-B*39:01. Described as above. Conditions: source organism: Bacillus anthracis str. A0465.
The target of assay [10] is HLA-A*69:01. The description is as above. To be noted: source organism: Bacillus anthracis str. A0465.
The target of assay [11] is HLA-A*26:01. The assay is described as above. To be noted: source organism: Bacillus anthracis str. A0465.
For assay [12], the target named is HLA-A*68:02. Described as above. To be noted: source organism: Bacillus anthracis str. A0465.
The target of assay [13] is HLA-A*26:01. In words: IEDB peptide-MHC binding, purified MHC/competitive/radioactivity; filed as Kd, often an IC50 or EC50 that approximates it; ≥ and ≤ were set here for values at or beyond the usual limits of such assays. Conditions: source organism: Dengue virus 2 Jamaica/1409/1983.
The next assay concerns the target HLA-A*03:01. Put plainly: IEDB peptide-MHC binding, purified MHC/competitive/fluorescence; filed as Kd, often an IC50 or EC50 that approximates it; ≥ and ≤ were set here for values at or beyond the usual limits of such assays.
Another assay deals with HLA-A*32:01. In words: IEDB peptide-MHC binding, purified MHC/competitive/radioactivity; filed as Kd, often an IC50 or EC50 that approximates it; ≥ and ≤ were set here for values at or beyond the usual limits of such assays. Conditions: source organism: Dengue virus 2 Peru/IQT2913/1996.
For another assay, the target named is HLA-B*57:01. Put plainly: IEDB peptide-MHC binding, purified MHC/competitive/fluorescence; filed as Kd, often an IC50 or EC50 that approximates it; ≥ and ≤ were set here for values at or beyond the usual limits of such assays. Conditions: source organism: Orthohantavirus negraense.
Assay [14] concerns the target HLA-A*02:01. The description is as above. Conditions: source organism: Orthohantavirus negraense.
For assay [15], the target named is HLA-B*46:01. The assay is described as above. To be noted: source organism: Orthohantavirus negraense.
A further assay has as its target HLA-B*15:17. The description is as above. Conditions: source organism: Orthohantavirus negraense.
The target in assay [16] is HLA-B*51:01. The assay is described as above. Conditions: source organism: Orthohantavirus negraense.
Assay [17] deals with HLA-B*18:01. The description is as above. Conditions: source organism: Orthohantavirus negraense.
Assay [18] addresses HLA-B*39:01. The description is as above. Conditions: source organism: Orthohantavirus negraense.
Assay [19] deals with HLA-A*69:01. The assay is described as above. Conditions: source organism: Orthohantavirus negraense.
Another assay has as its target HLA-B*27:03. Described as above. Conditions: source organism: Orthohantavirus negraense.
The target of the next assay is HLA-A*24:03. In words: IEDB peptide-MHC binding, purified MHC/direct/fluorescence; filed as Kd, often an IC50 or EC50 that approximates it; ≥ and ≤ were set here for values at or beyond the usual limits of such assays. Conditions: source organism: Orthohantavirus negraense.
Another assay addresses HLA-A*02:16. Described as above. Conditions: source organism: Orthohantavirus negraense.
Another assay concerns the target HLA-A*29:02. The description is as above. Conditions: source organism: Orthohantavirus negraense.
The target of a further assay is HLA-A*02:12. Described as above. To be noted: source organism: Orthohantavirus negraense.
The mark [20] stands for this setting: source organism: Dengue virus 3 Martinique/1243/1999.
The mark [21] stands for this setting: source organism: Dengue virus 4 Philippines/H241/1956.
Setting [22] is: source organism: Dengue virus 4 Dominica/814669/1981.
Where [23] appears, read: source organism: Escherichia coli 536.
Setting [24] is: source organism: Dengue virus 3 China/80-2/1980.
Setting [25] is: source organism: Dengue virus 2 Jamaica/1409/1983.
The mark [26] stands for this setting: source organism: Bacillus anthracis str. A0465.
Setting [27] is: source organism: Salmonella enterica subsp. enterica serovar Typhi.
Where [28] appears, read: source organism: Dengue virus 2 Peru/IQT2913/1996.
The mark [29] stands for this setting: source organism: Dengue virus 2 Thailand/NGS-C/1944.
Where [30] appears, read: source organism: Orthohantavirus negraense.

As for MLWMAEIPL, the values for the Kd in the assay with HLA-B*35:01, in the assay with HLA-A*02:01 [1] (setting [20]) and with HLA-A*02:17 (setting [20]) were 408 nM, 4.11 nM and 9.18 nM, respectively.

On to TLMLVALLGA, for which the Kd with HLA-A*02:01 [1] (setting [21]) is 5.42 nM; in the assay with HLA-A*02:03 [2] (setting [21]), 14.4 nM; with HLA-A*02:06 (setting [21]), 378 nM; in the assay with HLA-A*02:17 (setting [21]), 11000 nM.

Turning to KMSPGYVLGV, the Kd with HLA-A*02:01 [1] (setting [22]) was 4.44 nM; with HLA-A*02:03 [2] (setting [22]), 0.57 nM; with HLA-A*02:06 (setting [22]) it was 70.4 nM; in the assay with HLA-A*02:17 (setting [22]) it was 324 nM.

For AVASLLDEY, the equilibrium dissociation constant (Kd) with HLA-B*15:01 (setting [23]) stood at 96.2 nM; with HLA-A*01:01 (setting [23]) it was 720 nM; with HLA-A*26:01 [3] (setting [23]), 871 nM.

Turning to FTMGVLCLA, the dissociation constant (Kd) came to 12.3 nM with HLA-A*02:01 [1] (setting [24]); 28.7 nM with HLA-A*02:03 [2] (setting [20]); 3.17 nM in the assay with HLA-A*02:06 (setting [20]); 6740 nM with HLA-A*02:17 (setting [24]); 12.5 nM in the assay with HLA-A*68:02 [4] (setting [20]).

SLSVSLVLV: the Kd in the assay with HLA-A*02:01 [1] (setting [25]) worked out at 58.5 nM; with HLA-A*02:03 [2] (setting [25]) it was 1.86 nM; with HLA-A*02:17 (setting [25]), 4450 nM.

Regarding RLLRFTGLF, the Kd with HLA-A*02:19 (setting [26]), with HLA-A*02:03 [5] (setting [26]), with HLA-B*46:01 [6], in the assay with HLA-B*51:01 [7], in the assay with HLA-B*18:01 [8] and in the assay with HLA-B*39:01 [9] was not below 20000 nM in each case. In addition, the Kd with HLA-A*69:01 [10], in the assay with HLA-A*26:01 [11] and in the assay with HLA-A*68:02 [12] was not below 20000 nM throughout.

Regarding WTMKILIGV, the equilibrium dissociation constant (Kd) is 22.5 nM with HLA-A*02:01 [1] (setting [25]); 17.7 nM with HLA-A*02:06 (setting [25]); 6060 nM with HLA-A*02:17 (setting [25]); 5360 nM in the assay with HLA-A*26:01 [13]; 8.95 nM in the assay with HLA-A*68:02 [4] (setting [25]).

SLLFKTEDGV: the dissociation constant (Kd) with HLA-A*02:01 [1] (setting [25]) came out at 67.4 nM; with HLA-A*02:17 (setting [25]), 719 nM.

For the sequence WVAGVQLLY, the Kd was 39 nM in the assay with HLA-A*01:01 (setting [27]) and 486 nM with HLA-A*03:01 (setting [27]).

LLVISGLFPV: the dissociation constant Kd with HLA-A*02:03 [2] (setting [28]) turned out to be 4.84 nM; with HLA-A*02:06 (setting [28]), 1.13 nM; with HLA-A*02:17 (setting [29]) it was 45.5 nM.

As to GLFPVSIPI, the Kd in the assay with HLA-A*02:01 [1] (setting [29]) stood at 2.13 nM; in the assay with HLA-A*02:03 [2] (setting [28]), 4.32 nM; in the assay with HLA-A*32:01 it was 6.47 nM; in the assay with HLA-A*02:17 (setting [29]), 69.9 nM.

Consider VLLLVTHYAI, for which the dissociation constant (Kd) was 219 nM in the assay with HLA-A*02:01 [1] (setting [24]) and 561 nM with HLA-A*02:17 (setting [24]).

With TLLCLIPTA, the Kd in the assay with HLA-A*02:01 [1] (setting [21]) was 5.77 nM; with HLA-A*02:17 (setting [21]), 9560 nM.

Take SLLFREVWK: the Kd with HLA-B*57:01, with HLA-B*15:01 (setting [30]), with HLA-A*02:01 [14], in the assay with HLA-B*46:01 [15], with HLA-B*15:17 and with HLA-B*51:01 [16] was not below 20000 nM in each case. Also, the equilibrium dissociation constant (Kd) is not below 20000 nM with HLA-B*18:01 [17]; not below 20000 nM with HLA-B*39:01 [18]; not below 20000 nM in the assay with HLA-A*69:01 [19]; not below 20000 nM with HLA-A*26:01 [3] (setting [30]); 37.4 nM with HLA-A*03:01 (setting [30]); not below 20000 nM with HLA-B*27:03. The dissociation constant (Kd) with HLA-A*24:03, in the assay with HLA-A*02:19 (setting [30]), with HLA-A*02:16, with HLA-A*02:03 [5] (setting [30]), in the assay with HLA-A*29:02 and with HLA-A*02:12 was not below 20000 nM throughout.
